# Tested on: RSK2
# Sequence (chain, as listed by the source): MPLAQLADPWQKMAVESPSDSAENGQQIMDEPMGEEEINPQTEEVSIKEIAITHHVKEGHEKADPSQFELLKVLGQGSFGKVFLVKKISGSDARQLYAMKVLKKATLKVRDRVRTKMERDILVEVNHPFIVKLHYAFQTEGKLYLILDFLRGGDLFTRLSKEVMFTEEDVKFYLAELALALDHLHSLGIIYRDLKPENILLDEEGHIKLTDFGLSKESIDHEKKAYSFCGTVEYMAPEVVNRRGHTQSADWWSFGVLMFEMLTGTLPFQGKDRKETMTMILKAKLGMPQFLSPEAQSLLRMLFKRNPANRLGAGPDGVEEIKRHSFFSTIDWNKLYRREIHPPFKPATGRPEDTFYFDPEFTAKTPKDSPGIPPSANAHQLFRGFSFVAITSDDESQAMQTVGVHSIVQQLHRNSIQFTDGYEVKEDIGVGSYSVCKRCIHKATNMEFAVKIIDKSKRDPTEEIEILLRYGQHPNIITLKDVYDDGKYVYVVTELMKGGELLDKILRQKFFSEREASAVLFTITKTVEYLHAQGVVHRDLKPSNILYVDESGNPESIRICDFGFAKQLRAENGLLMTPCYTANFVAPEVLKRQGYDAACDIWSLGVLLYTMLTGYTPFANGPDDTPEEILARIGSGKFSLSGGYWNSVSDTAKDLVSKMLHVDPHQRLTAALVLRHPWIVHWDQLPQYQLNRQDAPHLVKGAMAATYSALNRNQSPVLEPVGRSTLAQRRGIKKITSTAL
substance,measurement,value
WWP1,RSK2 ubiquitination,SHN3 and WWP1 can promote RSK2 ubiquitination
